Measured values taken from patent US20190040132A1 (FRED HUTCHINSON CANCER RESEARCH CENTER, published 2019).

Biological target: T1, human ROR2 (human, UniProt Q01974 34-943)
T1 construct: also called K562 expressing human ROR2
Test: IHC on FFPE K562 cells transduced with human ROR2

T1 sequence (Q01974 34-943 limits assumed): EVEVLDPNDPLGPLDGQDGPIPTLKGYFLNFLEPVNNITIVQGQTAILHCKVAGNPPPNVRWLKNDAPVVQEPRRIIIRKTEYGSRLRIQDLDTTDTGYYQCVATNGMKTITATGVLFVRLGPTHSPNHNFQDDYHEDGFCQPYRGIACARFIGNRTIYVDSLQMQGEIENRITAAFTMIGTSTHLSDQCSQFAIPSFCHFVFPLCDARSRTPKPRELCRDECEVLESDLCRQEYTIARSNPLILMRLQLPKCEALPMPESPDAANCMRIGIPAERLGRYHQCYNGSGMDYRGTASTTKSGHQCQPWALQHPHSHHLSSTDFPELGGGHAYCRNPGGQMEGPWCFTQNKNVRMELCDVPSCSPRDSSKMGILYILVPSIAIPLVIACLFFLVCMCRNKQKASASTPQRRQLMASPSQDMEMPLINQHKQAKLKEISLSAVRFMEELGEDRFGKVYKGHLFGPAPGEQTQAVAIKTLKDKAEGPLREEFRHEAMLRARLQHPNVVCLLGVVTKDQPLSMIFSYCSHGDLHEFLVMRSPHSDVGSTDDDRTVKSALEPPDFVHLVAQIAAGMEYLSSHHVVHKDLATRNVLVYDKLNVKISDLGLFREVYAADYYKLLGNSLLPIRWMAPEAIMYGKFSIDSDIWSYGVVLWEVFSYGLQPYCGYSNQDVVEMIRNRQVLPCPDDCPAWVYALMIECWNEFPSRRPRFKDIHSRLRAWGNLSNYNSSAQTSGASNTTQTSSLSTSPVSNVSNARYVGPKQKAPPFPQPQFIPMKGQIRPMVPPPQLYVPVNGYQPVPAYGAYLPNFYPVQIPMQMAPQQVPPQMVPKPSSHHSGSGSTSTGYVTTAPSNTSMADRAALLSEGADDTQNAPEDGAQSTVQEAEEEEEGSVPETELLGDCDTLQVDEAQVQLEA

B1: anti-ROR1 monoclonal antibody 6D4 (antibody, V domains shown)
VH: SGPELVKPGTSVKMSCKASGYTFTDYYMNWVKQTHGKNLEWIGRVNPSNGNTDYNQKFKGKATLTVDKSLSTAYMQLSSLTSEDSAVYYCGRLAYWGQGSLVTVSA
VL: LTQSPASLAVSPGQRATISCKASQSVDYDGETYMNWYQQKSGQPPKLLIYAASNLESGIPARFSGSGSGTDFTLNIHPVEEEDAATYYCLQTLKNPYTFGGGTKLEIK
notes: Mouse monoclonal antibody from a hybridoma, used as supernatant or purified; also called mAb 6D4; clone 6D4
B1: no binding.
